From article PMC3217976, “A Conserved GA Element in TATA-Less RNA Polymerase II Promoters”
Changes are numbered by the printed parent chain.

Tests used:
[1] = target: T1, TBPcore (UniProt P13393 61-240); experiment: EMSA; 300 nM TBPcore, 50 ug/ml heparin; EMSA: 3 nM DNA, 300 nM TBPcore, 3 uM TFIIB, 4 mM Tris-HCl pH 8.0, 60 mM KCl, 5 mM MgCl2, 4% glycerol, 1 mM DTT, 100 ug/ml BSA, 0.1% Tween 20, 50 ug/ml heparin; conditions: protein: recombinant; label: 5'-Cy5 on coding strand; blunt
T1 sequence: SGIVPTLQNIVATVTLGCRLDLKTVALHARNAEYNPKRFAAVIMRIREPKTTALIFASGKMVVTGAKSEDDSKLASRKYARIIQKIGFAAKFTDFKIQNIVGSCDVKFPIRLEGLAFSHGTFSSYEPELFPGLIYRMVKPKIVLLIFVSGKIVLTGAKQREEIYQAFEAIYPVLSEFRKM

[2] = target: T2, TBPcore;TFIIB (Saccharomyces cerevisiae?;Saccharomyces …, UniProt P13393;P29055 61-240;1-345, |); experiment: EMSA; 300 nM TBPcore, 3 uM TFIIB, 50 ug/ml heparin; EMSA: 3 nM DNA, 300 nM TBPcore, 3 uM TFIIB, 4 mM Tris-HCl pH 8.0, 60 mM KCl, 5 mM MgCl2, 4% glycerol, 1 mM DTT, 100 ug/ml BSA, 0.1% Tween 20, 50 ug/ml heparin; conditions: protein: recombinant;recombinant; tags: ;; copies: 1;1; label: 5'-Cy5 on coding strand; blunt
T2 sequence 1: T1 sequence
T2 sequence 2: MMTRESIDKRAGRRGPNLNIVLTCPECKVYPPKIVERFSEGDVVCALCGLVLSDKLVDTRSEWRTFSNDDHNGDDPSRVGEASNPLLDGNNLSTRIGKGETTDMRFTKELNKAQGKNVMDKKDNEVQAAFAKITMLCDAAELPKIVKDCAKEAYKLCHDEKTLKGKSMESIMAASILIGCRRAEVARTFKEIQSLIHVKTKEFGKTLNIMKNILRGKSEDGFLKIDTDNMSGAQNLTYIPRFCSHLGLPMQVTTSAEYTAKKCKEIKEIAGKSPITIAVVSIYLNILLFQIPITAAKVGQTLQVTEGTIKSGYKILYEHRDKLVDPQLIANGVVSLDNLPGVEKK

[3] = target: T2, TBPcore;TFIIB; experiment: EMSA; GAE region not sufficient for binding; EMSA: 3 nM DNA, 300 nM TBPcore, 3 uM TFIIB, 4 mM Tris-HCl pH 8.0, 60 mM KCl, 5 mM MgCl2, 4% glycerol, 1 mM DTT, 100 ug/ml BSA, 0.1% Tween 20, 50 ug/ml heparin; conditions: protein: recombinant;recombinant; tags: ;; copies: 1;1; label: 5'-Cy5 on coding strand; blunt
[4] = target: T1, TBPcore; experiment: as above; conditions: protein: recombinant; label: 5'-Cy5 on coding strand; blunt
[5] = target: T2, TBPcore;TFIIB; experiment: EMSA; not impaired; EMSA: 3 nM DNA, 300 nM TBPcore, 3 uM TFIIB, 4 mM Tris-HCl pH 8.0, 60 mM KCl, 5 mM MgCl2, 4% glycerol, 1 mM DTT, 100 ug/ml BSA, 0.1% Tween 20, 50 ug/ml heparin; conditions: protein: recombinant;recombinant; tags: ;; copies: 1;1; label: 5'-Cy5 on coding strand; blunt
[6] = target: T1, TBPcore; experiment: as above; conditions: protein: recombinant; label: 5'-Cy5 on coding strand; blunt
[7] = target: T2, TBPcore;TFIIB; experiment: EMSA; not affected vs TMT1 (GAE); EMSA: 3 nM DNA, 300 nM TBPcore, 3 uM TFIIB, 4 mM Tris-HCl pH 8.0, 60 mM KCl, 5 mM MgCl2, 4% glycerol, 1 mM DTT, 100 ug/ml BSA, 0.1% Tween 20, 50 ug/ml heparin; conditions: protein: recombinant;recombinant; tags: ;; copies: 1;1; label: 5'-Cy5 on coding strand; blunt
[8] = target: T1, TBPcore; experiment: as above; conditions: protein: recombinant; label: 5'-Cy5 on coding strand; blunt

B1: HIS4 (TATA) (dsDNA)
DNA 1: ACAGTAGTATACTGTGTATATAATAGATATGGAACGTTAT
DNA 2: ATAACGTTCCATATCTATTATATACACAGTATACTACTGT
binding result [1]: binds
binding result [2]: binds

B2: HIS4 (GAE) (dsDNA)
DNA 1: TAGTATACTGTGAAAGGAAAAGGAAGATATGGAACGTTAT
DNA 2: ATAACGTTCCATATCTTCCTTTTCCTTTCACAGTATACTA
binding result [3]: no binding
binding result [4]: no binding

B3: TMT1 (TATA) (dsDNA)
DNA 1: ATTTTCATTTTTTATATAATATGTAACTAATTTAGT
DNA 2: ACTAAATTAGTTACATATTATATAAAAAATGAAAAT
binding result [5]: binds
binding result [6]: binds

B4: TMT1 (GAE) (dsDNA)
DNA 1: ATTTTCATTTTTAAAGGAAAAGGAATGTAACTAATTTAGT
DNA 2: ACTAAATTAGTTACATTCCTTTTCCTTTAAAAATGAAAAT
binding result [1]: binds
binding result [2]: binds

B5: TMT1 (A-12) (dsDNA)
DNA 1: B4 DNA 1 with G16A, G17A, G22A, G23A
DNA 2: B4 DNA 2 with C18T, C19T, C24T, C25T
binding result [7]: binds
binding result [8]: binds
